Data reported in patent US20200239556A1 (BIOVERATIV USA, published 2020).

Assays:
[1] = biological target: T1, full length human Complement Factor B (human, UniProt P00751 26-764); experiment: ELISA, antigen coated on the plate, HRP goat anti-mouse detection
T1 construct: also called fB; FB

human Factor Bb = biological target: T2, human Factor Bb (human, UniProt P00751 260-764); experiment: direct ELISA screen of hybridoma clones on fBb
T2 construct: The protein in the assay was purified human Factor Bb; also called fBb
T2 sequence (P00751 260-764 limits assumed): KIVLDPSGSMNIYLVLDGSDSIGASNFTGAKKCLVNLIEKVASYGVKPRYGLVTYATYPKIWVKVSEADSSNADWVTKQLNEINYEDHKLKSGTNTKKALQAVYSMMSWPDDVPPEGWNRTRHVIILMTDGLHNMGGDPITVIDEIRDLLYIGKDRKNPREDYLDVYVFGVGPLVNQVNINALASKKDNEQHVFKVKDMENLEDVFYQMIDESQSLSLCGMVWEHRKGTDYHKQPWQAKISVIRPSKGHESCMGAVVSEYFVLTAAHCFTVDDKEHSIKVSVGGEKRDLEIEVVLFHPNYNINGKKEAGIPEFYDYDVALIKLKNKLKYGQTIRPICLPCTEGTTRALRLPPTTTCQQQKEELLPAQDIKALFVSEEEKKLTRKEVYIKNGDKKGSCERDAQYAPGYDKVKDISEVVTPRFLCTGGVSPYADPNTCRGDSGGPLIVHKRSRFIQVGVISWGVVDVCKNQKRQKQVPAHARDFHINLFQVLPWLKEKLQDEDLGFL

T1 sequence (P00751 26-764 limits assumed): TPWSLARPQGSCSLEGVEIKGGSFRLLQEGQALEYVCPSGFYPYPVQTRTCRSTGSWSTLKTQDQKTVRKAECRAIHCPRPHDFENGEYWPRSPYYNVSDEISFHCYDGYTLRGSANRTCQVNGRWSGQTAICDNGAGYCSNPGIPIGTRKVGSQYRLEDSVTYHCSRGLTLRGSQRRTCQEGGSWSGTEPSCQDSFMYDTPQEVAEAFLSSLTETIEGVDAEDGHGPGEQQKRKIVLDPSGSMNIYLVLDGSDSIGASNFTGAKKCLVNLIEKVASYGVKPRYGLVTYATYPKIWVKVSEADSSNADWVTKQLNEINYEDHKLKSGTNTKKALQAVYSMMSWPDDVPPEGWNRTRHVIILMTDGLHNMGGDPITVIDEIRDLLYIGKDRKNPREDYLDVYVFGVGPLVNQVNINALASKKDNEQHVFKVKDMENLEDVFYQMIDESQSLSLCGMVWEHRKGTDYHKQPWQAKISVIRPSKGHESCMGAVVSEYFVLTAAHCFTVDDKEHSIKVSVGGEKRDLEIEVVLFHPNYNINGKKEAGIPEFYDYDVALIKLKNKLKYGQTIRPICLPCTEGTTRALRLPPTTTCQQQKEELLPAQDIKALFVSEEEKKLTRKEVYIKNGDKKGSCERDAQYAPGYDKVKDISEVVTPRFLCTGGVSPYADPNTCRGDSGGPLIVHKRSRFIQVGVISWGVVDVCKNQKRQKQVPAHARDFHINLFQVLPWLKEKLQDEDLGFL

B1: anti-Factor B Ab (antibody, V domains shown)
VH: EVQLQQSGPELVKPGASVKMSCKASGYSFTDYLMNWVKQSHGKSLEWIGRINPYNGDAFYNQRFKGKATLTVDKSSSTAHMELRSLTSEDSALYYCARLENDYGFTYWGQGTLVTVSA
VL: DIVMTQAAFSNPVTLGTSASISCSSSKSLLHSNGITYLYWYLQRPGQSPQLLIYRMSNLASGVPDRFSGSGSGTDFTLRISRVEAEDVGVYYCAQMLERPWTFGGGTKLEIK
notes: Mouse monoclonal antibody purified from hybridoma supernatant (NZBW mice immunised with fBb); also called FBb Ab; anti-Factor B antibody
- binding result [1]: binds
- binding result (human Factor Bb): binds
